test system: Escherichia coli TOP10; experiment: shrunken log2 fold change of peptide-encoding DNA abundance (4.5 h post-induction vs induction); higher = less antimicrobial activity (less host growth inhibition); conditions: time post-induction: 4.5 h; library: site-saturation at positions 5, 18, 19, 20
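Note: peptides expressed intracellularly from a pBAD plasmid library in pooled LB shake-flask culture, induced with 0.3% L-arabinose, DNA abundance read by NGS, three biological replicates, DESeq2 with apeglm shrinkage.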

| Sequence | shrunken log2 fold change |
| --- | --- |
| RRIRGRPPRLPRPRPRPGGHPRP | 0.779 |
| RRIRGRPPRLPRPRPRPMLQPRP | 0.324 |
| RRIRARPPRLPRPRPRPECNPRP | 0.807 |
| RRIRPRPPRLPRPRPRPYFRPRP | -0.463 |
| RRIRERPPRLPRPRPRPKVLPRP | 0.0059 |
| RRIRLRPPRLPRPRPRPCSMPRP | -0.00844 |
| RRIRTRPPRLPRPRPRPLRQPRP | 0.456 |
| RRIRVRPPRLPRPRPRPEPSPRP | 0.0778 |
| RRIRTRPPRLPRPRPRPASMPRP | -0.212 |
| RRIRLRPPRLPRPRPRPLDIPRP | -0.15 |
| RRIRCRPPRLPRPRPRPHTLPRP | -0.731 |
| RRIRDRPPRLPRPRPRPWYSPRP | -0.0808 |
| RRIRHRPPRLPRPRPRPGLVPRP | 0.0437 |
| RRIRNRPPRLPRPRPRPDCYPRP | -0.871 |
| RRIRTRPPRLPRPRPRPWVEPRP | -0.297 |
| RRIRERPPRLPRPRPRPDYKPRP | -0.31 |
| RRIRERPPRLPRPRPRPHLEPRP | -0.0328 |
| RRIRRRPPRLPRPRPRPCYEPRP | 0.107 |
| RRIRARPPRLPRPRPRPPASPRP | 0.77 |
| RRIRKRPPRLPRPRPRPQNKPRP | 0.0275 |
| RRIRLRPPRLPRPRPRPWWDPRP | -0.305 |
| RRIRGRPPRLPRPRPRPLNDPRP | 0.388 |
| RRIRARPPRLPRPRPRPWMNPRP | -0.121 |
| RRIRWRPPRLPRPRPRPLGSPRP | -0.0308 |
| RRIRERPPRLPRPRPRPVVQPRP | -0.104 |

| Sequence | shrunken log2 fold change |
| --- | --- |
| RRIRVRPPRLPRPRPRPMYYPRP | -0.706 |
| RRIRIRPPRLPRPRPRPVKTPRP | -0.0343 |
| RRIRYRPPRLPRPRPRPWQVPRP | -0.09 |
| RRIRMRPPRLPRPRPRPKREPRP | 0.055 |
| RRIRRRPPRLPRPRPRPEVYPRP | 0.0769 |
| RRIRTRPPRLPRPRPRPASDPRP | -0.141 |
| RRIRHRPPRLPRPRPRPHQCPRP | 1.73 |
| RRIRTRPPRLPRPRPRPGLPPRP | 0.189 |
| RRIRHRPPRLPRPRPRPIQDPRP | -0.00151 |
| RRIRSRPPRLPRPRPRPVFDPRP | 0.106 |
| RRIRRRPPRLPRPRPRPHHYPRP | -0.168 |
| RRIRERPPRLPRPRPRPPVQPRP | -0.122 |
| RRIRARPPRLPRPRPRPMFIPRP | 0.0587 |
| RRIRARPPRLPRPRPRPYGNPRP | -0.0109 |
| RRIRKRPPRLPRPRPRPEMGPRP | 0.502 |
| RRIRFRPPRLPRPRPRPFQIPRP | -0.0567 |
| RRIRRRPPRLPRPRPRPICCPRP | 0.213 |
| RRIRLRPPRLPRPRPRPVPKPRP | 0.282 |
| RRIRVRPPRLPRPRPRPEKYPRP | -0.171 |
| RRIRWRPPRLPRPRPRPRQNPRP | 0.448 |
| RRIRMRPPRLPRPRPRPASIPRP | -0.015 |
| RRIRSRPPRLPRPRPRPWEGPRP | -0.0466 |
| RRIRTRPPRLPRPRPRPAWNPRP | -0.0659 |
| RRIRFRPPRLPRPRPRPNFVPRP | -0.269 |
| RRIRTRPPRLPRPRPRPENEPRP | 0.138 |

| Sequence | shrunken log2 fold change |
| --- | --- |
| RRIRERPPRLPRPRPRPHQYPRP | -0.00989 |
| RRIRERPPRLPRPRPRPFDGPRP | 0.000346 |
| RRIRKRPPRLPRPRPRPKANPRP | 0.768 |
| RRIRARPPRLPRPRPRPKLAPRP | 0.555 |
| RRIRGRPPRLPRPRPRPISCPRP | 0.279 |
| RRIRIRPPRLPRPRPRPIYHPRP | -0.622 |
| RRIRFRPPRLPRPRPRPWRPPRP | 0.275 |
| RRIRFRPPRLPRPRPRPGALPRP | 0.0277 |
| RRIRERPPRLPRPRPRPRRDPRP | 0.0233 |
| RRIRVRPPRLPRPRPRPRPKPRP | 0.521 |
| RRIRCRPPRLPRPRPRPIKPPRP | -0.259 |
| RRIRPRPPRLPRPRPRPPIEPRP | -0.0597 |
| RRIRGRPPRLPRPRPRPFEFPRP | -0.157 |
| RRIRLRPPRLPRPRPRPLYTPRP | -0.461 |
| RRIRGRPPRLPRPRPRPTNCPRP | 0.31 |
| RRIRYRPPRLPRPRPRPMNIPRP | -0.124 |
| RRIRNRPPRLPRPRPRPDWWPRP | 0.304 |
| RRIRGRPPRLPRPRPRPWDSPRP | -0.479 |
| RRIRWRPPRLPRPRPRPHVSPRP | -0.0109 |
| RRIRKRPPRLPRPRPRPSCVPRP | 0.311 |
| RRIRGRPPRLPRPRPRPCTYPRP | 0.00971 |
| RRIRNRPPRLPRPRPRPNKMPRP | -0.0283 |
| RRIRRRPPRLPRPRPRPMVRPRP | 0.276 |
| RRIRVRPPRLPRPRPRPNYEPRP | -0.0505 |
| RRIRSRPPRLPRPRPRPWDNPRP | 0.0157 |

| Sequence | shrunken log2 fold change |
| --- | --- |
| RRIRVRPPRLPRPRPRPAHHPRP | -0.011 |
| RRIRVRPPRLPRPRPRPVLAPRP | 0.239 |
| RRIRTRPPRLPRPRPRPGWPPRP | 0.576 |
| RRIRLRPPRLPRPRPRPNHIPRP | -0.671 |
| RRIRHRPPRLPRPRPRPRTHPRP | -0.137 |
| RRIRYRPPRLPRPRPRPCCVPRP | -0.422 |
| RRIRSRPPRLPRPRPRPAFVPRP | 0.577 |
| RRIRSRPPRLPRPRPRPIFFPRP | 0.124 |
| RRIRWRPPRLPRPRPRPFWFPRP | -0.119 |
| RRIRKRPPRLPRPRPRPIMTPRP | -0.111 |
| RRIRIRPPRLPRPRPRPVRPPRP | 0.664 |
| RRIRERPPRLPRPRPRPLAVPRP | -0.0594 |
| RRIRFRPPRLPRPRPRPGAQPRP | 0.247 |
| RRIRYRPPRLPRPRPRPHECPRP | 0.0244 |
| RRIRKRPPRLPRPRPRPMDTPRP | 0.336 |
| RRIRQRPPRLPRPRPRPTVGPRP | -0.161 |
| RRIRIRPPRLPRPRPRPLDGPRP | 0.0631 |
| RRIRDRPPRLPRPRPRPGPCPRP | 0.244 |
| RRIRNRPPRLPRPRPRPLPGPRP | 0.143 |
| RRIRGRPPRLPRPRPRPPGNPRP | 0.432 |
| RRIRDRPPRLPRPRPRPGLNPRP | 0.184 |
| RRIRHRPPRLPRPRPRPHWVPRP | -0.00951 |
| RRIRLRPPRLPRPRPRPPNKPRP | -0.123 |
| RRIRYRPPRLPRPRPRPHARPRP | -0.163 |
| RRIRGRPPRLPRPRPRPKVRPRP | 0.105 |

| Sequence | shrunken log2 fold change |
| --- | --- |
| RRIRARPPRLPRPRPRPRDNPRP | 0.295 |
| RRIRQRPPRLPRPRPRPNHMPRP | -0.422 |
| RRIRKRPPRLPRPRPRPADKPRP | 0.122 |
| RRIRCRPPRLPRPRPRPHNCPRP | -0.491 |
| RRIRHRPPRLPRPRPRPYFTPRP | -0.679 |
| RRIRLRPPRLPRPRPRPLNPPRP | -0.0831 |
| RRIRQRPPRLPRPRPRPPTGPRP | 0.0124 |
| RRIRSRPPRLPRPRPRPPPKPRP | 0.708 |
| RRIRARPPRLPRPRPRPACPPRP | 0.255 |
| RRIRTRPPRLPRPRPRPDVYPRP | 0.00573 |
| RRIRFRPPRLPRPRPRPMDWPRP | 0.314 |
| RRIRHRPPRLPRPRPRPPHYPRP | 0.0175 |
| RRIRLRPPRLPRPRPRPIQQPRP | -0.0102 |
| RRIRRRPPRLPRPRPRPCMYPRP | -0.0801 |
| RRIRIRPPRLPRPRPRPIHCPRP | -0.00133 |
| RRIRRRPPRLPRPRPRPSSFPRP | -0.0626 |
| RRIRCRPPRLPRPRPRPYTGPRP | -0.554 |
| RRIRYRPPRLPRPRPRPLRQPRP | 0.0273 |
| RRIRGRPPRLPRPRPRPTHVPRP | 0.483 |
| RRIRERPPRLPRPRPRPDQAPRP | -0.00195 |
| RRIRARPPRLPRPRPRPCFPPRP | -0.0469 |
| RRIRVRPPRLPRPRPRPIMEPRP | 0.0384 |
| RRIRTRPPRLPRPRPRPGWSPRP | 0.354 |
| RRIRDRPPRLPRPRPRPRDAPRP | 0.59 |
| RRIRFRPPRLPRPRPRPIGWPRP | -0.0252 |

Reference: the supplement of paper PMC9112550, “Optimization of the antimicrobial peptide Bac7 by deep mutational scanning” (BMC Biology, 2022)
